Laboratory results reported in patent US6881547B1, “Methods and reagents for treating autoimmune disorders” (priority 2001, dated 2005).

How the values were obtained:
GPBP = target: T1, GPBP (Homo sapiens, UniProt Q9Y5P4); assay: in vitro GPBP autophosphorylation in the presence of GPΔIII-derived peptide; type: biochemical; conditions: about 200 ng rGPBP, 150 μM ATP, 5 nmol peptide
T1 construct: made in house; host or cells: Pichia pastoris GS115
T1 sequence (Q9Y5P4 1-624): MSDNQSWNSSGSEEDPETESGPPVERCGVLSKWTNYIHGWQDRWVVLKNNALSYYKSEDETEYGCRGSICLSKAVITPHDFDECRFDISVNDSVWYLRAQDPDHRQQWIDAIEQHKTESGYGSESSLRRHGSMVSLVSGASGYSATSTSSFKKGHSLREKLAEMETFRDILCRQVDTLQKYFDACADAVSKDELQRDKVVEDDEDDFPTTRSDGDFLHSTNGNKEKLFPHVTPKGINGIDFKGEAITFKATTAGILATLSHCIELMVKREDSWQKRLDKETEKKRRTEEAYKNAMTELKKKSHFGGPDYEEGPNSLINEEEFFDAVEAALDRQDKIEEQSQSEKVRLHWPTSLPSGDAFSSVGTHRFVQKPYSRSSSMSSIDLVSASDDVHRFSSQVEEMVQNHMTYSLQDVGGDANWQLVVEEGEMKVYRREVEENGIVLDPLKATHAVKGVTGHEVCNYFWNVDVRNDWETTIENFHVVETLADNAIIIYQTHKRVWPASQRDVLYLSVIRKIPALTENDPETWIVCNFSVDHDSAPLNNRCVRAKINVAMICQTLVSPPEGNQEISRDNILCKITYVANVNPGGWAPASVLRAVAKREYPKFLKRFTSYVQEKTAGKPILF
Experimental: FIG. 20. Regulation of the GPBP by the C terminal region of GPΔIII. About 200 ng of RGPBP were in vitro phosphorylated with 150 μM ATP in the absence (lane 1) or in the presence of 5 nmol of GPΔIII-derived peptide synthesized either using Boc-(lane 2) or Fmoc-(lane 3) chemistry. The reaction mixtures were subjected to SDS-PAGE, transferred to PVDF and autoradiographed to assess autophosphorylation, and subsequently blotted with anti-FLAG monoclonal antibodies (Sigma) to determine the amount of recombinant material present (Western).
In vitro phosphorylation assays-About 200 ng of rGPBP were incubated overnight at 30° C. in 25 mM P-glycerolphosphate (pH 7.0), 0.5 mM EDTA, 0.5 mM EGTA, 8 mM MgCl2, 5 mM MnCl2, 1 mM DTT and 0.132 μM γ-^32P-ATP, in the presence or absence of 0.5-1 μg of protein substrates or 10 nmoles of synthetic peptides, in a total volume of 50 μl.
(§1) Phosphorylation studies. Phosphorylation studies were essentially done as described above (see also 3 and 11). In some experiments, the substrates were in-blot renatured and then, phosphorylated for 30 min at room temperature by overlaying 100 μl of phosphorylation buffer containing 0.5 μg of RGPBP. Digestion with V8 endopeptidase and immunoprecipitation were performed as described in (3).

PKA [1] = target: T2, PKA (Bos taurus, UniProt P00517); assay: PKA phosphorylation of native GP antigen (α3(IV)NC1 monomer or hexamer) in the presence of C-terminal peptides; type: biochemical; conditions: long storage at low temperatures
Experimental: FIG. 16. Phosphorylation of GP alternative splicing products by PKA. In left panel, equimolecular amounts of rGP (lanes 1), rGPΔV (lanes 2), rGPΔIII (lanes 3) or rGPΔIII/IV/V (lanes 4), equivalent to 500 ng of the GP were phosphorylated at the indicated ATP concentrations. One-fifth of the total phosphorylation reaction mixture was separated by gel electrophoresis and transferred to PVDF, autoradiographed (shown) and the proteins blotted with M3/1, a specific monoclonal antibody recognizing all four species (shown) or using antibodies specific for each individual C-terminal region (not shown). […] Right panel: purified α3(IV)NC1 domain or hexamer was phosphorylated with PKA and 0.1 μM ATP in the absence (lanes 1) or in the presence of 10 nmol of peptides representing the C-terminal region of either GPΔIII (lanes 2) or GPΔIII/IV/V (lanes 3). Where indicated the phosphorylation mixtures of purified α3(IV)NC1 domain were V8 digested and immunoprecipitated with antibodies specific for the N terminus of the human α3(IV)NC1 domain (3). Bars and numbers indicate the position and sizes (kDa) of the molecular weight markers.
as §1
Regulation of the phosphorylation of the human GP antigen by alternative splicing. We produced bacterial recombinant proteins representing the primary antigen (GP) or the individual alternative products GPΔV (SEQ ID NO:46), GPΔIII (SEQ ID NO:48) and GPΔIII/IV/V (SEQ ID NO:50), and we tested their ability to be phosphorylated by PKA (FIG. 16, left panel). […] Accordingly, the differences observed in phosphorylation for the full polypeptides also existed among the individual N-terminal regions, as determined after specific V8 digestion and immunoprecipitation (not shown). […]

PKA [2] = target: T2, PKA; assay: in vitro phosphorylation of the synthetic peptides by PKA; type: biochemical; conditions: not shown
[3] = test system: 22-25-kDa conformers of the native human α3(IV)NC1 domain
[4] = test system: 27-kDa conformer of the native human α3(IV)NC1 domain
[5] = test system: T3, FLAG-tagged recombinant GPBP (rGPBP)
T3 sequence: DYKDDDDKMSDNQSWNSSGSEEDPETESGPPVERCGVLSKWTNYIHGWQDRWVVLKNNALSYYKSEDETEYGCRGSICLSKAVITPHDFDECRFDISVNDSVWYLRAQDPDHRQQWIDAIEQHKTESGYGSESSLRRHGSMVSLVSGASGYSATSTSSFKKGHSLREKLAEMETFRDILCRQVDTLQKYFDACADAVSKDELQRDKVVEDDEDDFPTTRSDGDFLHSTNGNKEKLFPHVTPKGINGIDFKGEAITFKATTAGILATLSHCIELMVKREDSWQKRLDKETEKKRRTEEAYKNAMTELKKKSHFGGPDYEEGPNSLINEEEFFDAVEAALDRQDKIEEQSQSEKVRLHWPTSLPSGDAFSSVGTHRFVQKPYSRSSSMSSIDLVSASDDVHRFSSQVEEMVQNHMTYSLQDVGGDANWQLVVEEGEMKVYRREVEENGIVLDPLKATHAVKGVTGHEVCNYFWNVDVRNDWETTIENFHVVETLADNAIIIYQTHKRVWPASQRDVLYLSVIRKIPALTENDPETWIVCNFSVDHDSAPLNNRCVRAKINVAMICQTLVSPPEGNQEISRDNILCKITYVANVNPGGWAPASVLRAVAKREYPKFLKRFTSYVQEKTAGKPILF

[6] = test system: prokaryotic human recombinant α3(IV)NC1
[7] = target: rMBP, recombinant 21 kDa human myelin basic protein (UniProt P02686)
Sequence of rMBP, recombinant 21 kDa human myelin basic protein (P02686 other isoform, or with tags, fused parts or gaps): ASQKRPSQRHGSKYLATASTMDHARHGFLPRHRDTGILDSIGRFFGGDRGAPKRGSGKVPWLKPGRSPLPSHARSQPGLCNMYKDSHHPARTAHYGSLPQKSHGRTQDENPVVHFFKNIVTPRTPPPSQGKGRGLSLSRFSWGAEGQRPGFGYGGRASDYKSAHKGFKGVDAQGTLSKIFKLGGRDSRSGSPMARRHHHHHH

[8] = test system: rMBPΔII, recombinant 18.5 kDa human myelin basic protein
Sequence of rMBPΔII, recombinant 18.5 kDa human myelin basic protein (chain, as listed by the source mutant): as the sequence (P02686 other isoform, or with tags, fused parts or gaps) above

Sequence of rGPΔV (chain, as listed by the source mutant): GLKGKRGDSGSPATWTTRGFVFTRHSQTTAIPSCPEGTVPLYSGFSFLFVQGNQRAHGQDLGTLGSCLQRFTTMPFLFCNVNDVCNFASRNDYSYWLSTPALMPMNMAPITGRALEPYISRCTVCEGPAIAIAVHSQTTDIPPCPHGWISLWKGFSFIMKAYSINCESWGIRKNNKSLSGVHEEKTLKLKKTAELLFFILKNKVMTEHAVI
Sequence of rGPΔIII (chain, as listed by the source mutant): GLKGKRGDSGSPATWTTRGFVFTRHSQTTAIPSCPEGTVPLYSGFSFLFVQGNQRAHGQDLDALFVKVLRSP
Sequence of rGPΔIII/IV/V (chain, as listed by the source mutant): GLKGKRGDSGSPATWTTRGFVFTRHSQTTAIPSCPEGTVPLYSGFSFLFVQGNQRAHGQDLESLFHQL

| Substance | effect on GPBP autophosphorylation (GPBP) | retention of ability to induce PKA on storage (PKA [1]) | in vitro substrate of PKA (PKA [2]) | ^32P incorporation, phosphorylation by PKA [3] | ^32P incorporation, phosphorylation by PKA [4] | in vitro phosphorylation [5] | ^32P incorporation, phosphorylation by PKA [6] | ^32P incorporation, phosphorylation by PKA (rGPΔIII/IV/V) | ^32P incorporation, phosphorylation by PKA (rGPΔIII) | ^32P incorporation, phosphorylation by PKA (rGPΔV) | in vitro phosphorylation by PKA [7] | in vitro phosphorylation by PKA [8] |
| --- | --- | --- | --- | --- | --- | --- | --- | --- | --- | --- | --- | --- |
| QRAHGQDLDALFVKVLRSP [Boc-based peptide] | positively influenced GPBP autophosphorylation | loses its ability to induce PKA | in vitro substrates of PKA |  |  |  |  |  |  |  |  |  |
| catalytic subunit of the cAMP-dependent protein kinase |  |  |  | when the ATP concentration was lowered to extracellular-like concentrations (0.15 mM), the 22-kDa conformer was preferentially labeled | At 150 mM ATP, the major ^32P incorporation occurred in the 27-kDa conformer | Bovine cPKA phosphorylates GPBP in vitro (not shown) | all four recombinant antigens were phosphorylated but to very different extents | The alternative forms incorporated ^32P more efficiently than the primary GP antigen | The alternative forms incorporated ^32P more efficiently than the primary GP antigen | The alternative forms incorporated ^32P more efficiently than the primary GP antigen | MBPΔII was a better substrate than MBP, and Ser^8 was the major phosphorylation site | MBPΔII was a better substrate than MBP, and Ser^8 was the major phosphorylation site |
| QRAHGQDLDALFVKVLRSP [Fmoc-based peptide] | inhibited GPBP autophosphorylation |  | not |  |  |  |  |  |  |  |  |  |
